Publication PMC4298681 (The Journal of Cell Biology, 2015)

Target: native Arp2/3 complex purified from Acanthamoeba castellanii (Acanthamoeba castellanii, UniProt P53487 1-388)
Assay: pull-down

Kd: ~213 nM
B1: GST-NIK 340–500 (domain or fragment)
chain: SSIVNVPGESTLRRDFLRLQQENKERSEALRRQQLLQEQQLREQEEYKRQLLAERQKRIEQQKEQRRRLEEQQRREREARRQQEREQRRREQEEKRRLEELERRRKEEEERRRAEEEKRRVEREQEYIRRQLEEEQRHLEILQQQLLQEQAMLLHDHRRPH
